These results are taken from patent EP4541815A1 (Huahui Health Ltd., dated 2023).

The target in test [1] is FcγRIIIa F158 on Jurkat/NFAT-luc2p/FcγRIIIa F158 cells (UniProt P08637 17-254, limits assumed). In words: cell-based or functional assay.
Test [2] deals with T1, FcγRIIa R131 on Jurkat/NFAT-luc2p/FcγRIIa R131 cells (UniProt P12318 34-317, limits assumed).
T1 sequence (looked up): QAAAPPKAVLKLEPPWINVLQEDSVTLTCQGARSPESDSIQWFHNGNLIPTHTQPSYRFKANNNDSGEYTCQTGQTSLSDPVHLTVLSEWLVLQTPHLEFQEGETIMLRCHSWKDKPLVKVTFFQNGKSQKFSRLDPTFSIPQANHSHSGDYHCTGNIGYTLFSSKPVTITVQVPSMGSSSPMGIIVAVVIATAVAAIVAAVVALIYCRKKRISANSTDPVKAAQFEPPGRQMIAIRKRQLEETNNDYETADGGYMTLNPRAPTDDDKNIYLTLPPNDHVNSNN
In words: cell-based or functional assay.

For test [3], the target named is Pre-S1 domain of hepatitis B virus (L protein) on recombinant HBV D genotype virus (hepatitis B virus, D genotype). In words: cell-based or functional assay.
In test [4] the target is T2, hFcγRIIa (H131) (recombinant, C-terminal 6xHis tag) (human, UniProt P12318 34-217).
T2 construct: also called hFcyR2a H131
T2 sequence: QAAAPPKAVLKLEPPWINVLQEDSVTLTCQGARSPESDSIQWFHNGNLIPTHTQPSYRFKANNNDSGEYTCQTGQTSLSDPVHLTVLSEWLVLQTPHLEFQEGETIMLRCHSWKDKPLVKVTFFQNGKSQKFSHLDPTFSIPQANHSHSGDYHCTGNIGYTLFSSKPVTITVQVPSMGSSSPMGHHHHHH
In words: Biacore SPR, ratio against A14 WT.

Test [5] deals with T3, hFcγRIIa (R131) (recombinant, C-terminal 6xHis tag) (human, UniProt P12318 34-217).
T3 construct: also called hFcyR2a R131
T3 sequence: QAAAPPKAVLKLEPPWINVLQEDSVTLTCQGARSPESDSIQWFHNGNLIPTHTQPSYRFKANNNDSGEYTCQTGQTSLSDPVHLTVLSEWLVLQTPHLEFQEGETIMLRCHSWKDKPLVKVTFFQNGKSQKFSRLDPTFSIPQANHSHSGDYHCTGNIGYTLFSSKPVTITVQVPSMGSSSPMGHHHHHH
Description: Biacore SPR, ratio against A14 WT.

Test [6] concerns the target T4, hFcγRIIb (recombinant, C-terminal 6xHis tag) (human, UniProt P31994 43-217).
T4 construct: also called hFcyR2b
T4 sequence: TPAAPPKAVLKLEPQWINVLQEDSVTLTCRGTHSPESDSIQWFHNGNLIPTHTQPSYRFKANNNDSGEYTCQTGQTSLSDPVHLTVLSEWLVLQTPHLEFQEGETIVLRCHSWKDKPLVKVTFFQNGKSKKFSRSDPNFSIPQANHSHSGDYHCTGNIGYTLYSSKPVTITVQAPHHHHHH
Description: Biacore SPR, ratio against A14 WT.

In test [7] the target is T5, hFcγRIIIa (V158) (recombinant, C-terminal 6xHis tag) (human, UniProt P08637 17-208).
T5 construct: also called hFcyR3a V158
T5 sequence (P08637 other isoform, or with tags, fused parts or gaps): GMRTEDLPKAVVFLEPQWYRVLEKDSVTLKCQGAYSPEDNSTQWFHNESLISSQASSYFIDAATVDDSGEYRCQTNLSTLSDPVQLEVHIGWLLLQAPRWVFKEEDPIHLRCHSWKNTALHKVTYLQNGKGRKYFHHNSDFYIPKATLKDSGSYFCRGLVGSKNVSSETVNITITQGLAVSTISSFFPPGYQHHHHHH
Description: Biacore SPR, ratio against A14 WT. For orientation: SPR reads the build-up and loss of mass on a sensor chip optically.

For test [8], the target named is T6, hFcγRIIIa (F158) (recombinant, C-terminal 6xHis tag) (human, UniProt P08637 17-208).
T6 construct: also called hFcyR3a F158
T6 sequence (P08637 other isoform, or with tags, fused parts or gaps): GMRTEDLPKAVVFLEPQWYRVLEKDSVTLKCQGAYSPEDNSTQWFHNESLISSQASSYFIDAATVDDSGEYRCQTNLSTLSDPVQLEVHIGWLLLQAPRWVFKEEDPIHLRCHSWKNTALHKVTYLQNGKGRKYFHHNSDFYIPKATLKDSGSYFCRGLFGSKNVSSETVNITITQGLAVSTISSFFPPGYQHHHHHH
In words: Biacore SPR, ratio against A14 WT.

The target in test [9] is T7, hFcγRIa (recombinant, C-terminal 6xHis tag) (human, UniProt P12314 16-292).
T7 construct: also called hFcγR1a
T7 sequence (P12314 other isoform, or with tags, fused parts or gaps): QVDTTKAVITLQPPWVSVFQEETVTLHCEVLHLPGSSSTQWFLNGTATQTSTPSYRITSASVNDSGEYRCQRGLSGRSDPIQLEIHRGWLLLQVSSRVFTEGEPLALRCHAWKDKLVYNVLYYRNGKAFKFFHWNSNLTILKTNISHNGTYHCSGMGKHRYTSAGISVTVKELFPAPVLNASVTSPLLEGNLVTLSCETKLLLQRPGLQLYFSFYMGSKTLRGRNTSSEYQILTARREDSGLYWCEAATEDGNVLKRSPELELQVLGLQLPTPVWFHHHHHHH
Description: Biacore SPR, ratio against A14 WT.

For test [10], the target named is T2, hFcγRIIa (H131) (recombinant, …). In words: Biacore SPR, antibody captured on Protein G CM5 chip, hFcγR as mobile phase, pH 7.0, 1:1 Langmuir fit.
For test [11], the target named is T3, hFcγRIIa (R131) (recombinant, …). The test is described as above.
Test [12] concerns the target T4, hFcγRIIb (recombinant, C-terminal 6xHis …). Described as above.
The target of test [13] is T5, hFcγRIIIa (V158) (recombinant, …). Described as above.
Test [14] deals with T6, hFcγRIIIa (F158) (recombinant, …). The test is described as above.
For test [15], the target named is T7, hFcγRIa (recombinant, C-terminal 6xHis …). The test is described as above.

By Kd is commonly meant the constant that tells how readily two partners part at equilibrium.

B1: afuco-A14 GA LS (antibody, human IgG1, lambda)
heavy: QVQLQQSGPGLVKPSQTLSLTCAISGDSVSSNSAAWNWIRQSPSRGLEWLGRTYYRSKWYNDYAVSVKSRITINPDTSKNQFSLQLNSVTPEDTAVYYCARGTRWGMDVWGQGTLVTVSSASTKGPSVFPLAPSSKSTSGGTAALGCLVKDYFPEPVTVSWNSGALTSGVHTFPAVLQSSGLYSLSSVVTVPSSSLGTQTYICNVNHKPSNTKVDKKVEPKSCDKTHTCPPCPAPELLAGPSVFLFPPKPKDTLMISRTPEVTCVVVDVSHEDPEVKFNWYVDGVEVHNAKTKPREEQYNSTYRVVSVLTVLHQDWLNGKEYKCKVSNKALPAPIEKTISKAKGQPREPQVYTLPPSRDELTKNQVSLTCLVKGFYPSDIAVEWESNGQPENNYKTTPPVLDSDGSFFLYSKLTVDKSRWQQGNVFSCSVLHEALHSHYTQKSLSLSPGK
light: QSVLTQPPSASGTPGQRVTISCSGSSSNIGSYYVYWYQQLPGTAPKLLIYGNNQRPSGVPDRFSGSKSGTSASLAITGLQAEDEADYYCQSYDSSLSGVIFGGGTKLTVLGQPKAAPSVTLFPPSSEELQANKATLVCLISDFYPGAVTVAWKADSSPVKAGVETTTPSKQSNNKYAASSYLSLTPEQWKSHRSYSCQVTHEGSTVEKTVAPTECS
As for B1, in [1], the “ADCC activity, fold enhancement compared to A14” value worked out at 18.6 fold. The “ADCP activity, fold enhancement compared to A14” value in test [2] was 4.7 fold. In addition, the “IC50 of inhibition of HBV infection of HepG2-hNTCP cells (HBeAg secretion)” value in test [3] was about 0.011 µg/mL. Besides, the “Fold (KD of A14 WT over KD of afuco-A14 GA LS)” value in test [4] amounted to 4.63 fold; in test [5], 3.83 fold; in [6] it was 0.76 fold; in test [7], 7.89 fold; in [8] it was 11 fold; in [9], 0.41 fold. The Kd worked out at 169 nM in test [10]; 204 nM in test [11]; 7470 nM in test [12]; 123 nM in test [13]; 588 nM in test [14]; 173 nM in [15].
